Target: wild-type human serum retinol binding protein with an N-terminal hemagglutinin tag (RBP^HA WT) (human, UniProt P02753 19-201)
Assay: ELISA

B1: STRA6 (stimulated by retinoic acid 6) membrane receptor with a myc tag (STRA6^myc) (receptor, UniProt Q9BX79 1-667, looked up)
chain: MSSQPAGNQTSPGATEDYSYGSWYIDEPQGGEELQPEGEVPSCHTSIPPGLYHACLASLSILVLLLLAMLVRRRQLWPDCVRGRPGLPSPVDFLAGDRPRAVPAAVFMVLLSSLCLLLPDEDALPFLTLASAPSQDGKTEAPRGAWKILGLFYYAALYYPLAACATAGHTAAHLLGSTLSWAHLGVQVWQRAECPQVPKIYKYYSLLASLPLLLGLGFLSLWYPVQLVRSFSRRTGAGSKGLQSSYSEEYLRNLLCRKKLGSSYHTSKHGFLSWARVCLRHCIYTPQPGFHLPLKLVLSATLTGTAIYQVALLLLVGVVPTIQKVRAGVTTDVSYLLAGFGIVLSEDKQEVVELVKHHLWALEVCYISALVLSCLLTFLVLMRSLVTHRTNLRALHRGAALDLSPLHRSPHPSRQAIFCWMSFSAYQTAFICLGLLVQQIIFFLGTTALAFLVLMPVLHGRNLLLFRSLESSWPFWLTLALAVILQNMAAHWVFLETHDGHPQLTNRRVLYAATFLLFPLNVLVGAMVATWRVLLSALYNAIHLGQMDLSLLPPRAATLDPGYYTYRNFLKIEVSQSHPAMTAFCSLLLQAQSLLPRTMAAPQDSLRPGEEDEGMQLLQTKDSMAKGARPGASRGRARWGLAYTLLHNPTLQVFRKTALLGANGAQP
Q: With B1 as the binder, how does the Kd read?
A: Its Kd is 0.059 µM.

Reference: article PMC4409664 (Cell, 2015)
